From publication PMC10611554, “AcbHLH144 transcription factor negatively regulates phenolic biosynthesis to modulate pineapple internal browning”

Molecular target: T1, GST-AcbHLH144 (pineapple, UniProt A0A6P5FRB5 1-240)
T1 sequence: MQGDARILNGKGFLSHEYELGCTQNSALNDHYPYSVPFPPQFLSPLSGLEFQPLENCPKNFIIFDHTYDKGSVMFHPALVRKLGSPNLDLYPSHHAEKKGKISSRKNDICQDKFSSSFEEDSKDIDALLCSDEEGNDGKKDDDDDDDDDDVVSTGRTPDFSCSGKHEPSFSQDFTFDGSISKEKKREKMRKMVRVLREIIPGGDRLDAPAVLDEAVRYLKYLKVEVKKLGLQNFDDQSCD
Assay: EMSA; Chemiluminescent EMSA Kit (Beyotime); buffer, salt, pH and temperature not stated
Conditions: protein: recombinant; tags: N-terminal GST (pGEX-4T-1); chain copies: 2; label: biotin; blunt

B1: Ac4CL5 promoter N-box probe (dsDNA)
DNA 1: CGGAGCACCTGCCCCTGCACGAGTACTGCTTCGAGCAGCT
DNA 2: AGCTGCTCGAAGCAGTACTCGTGCAGGGGCAGGTGCTCCG
- binding result: binds
